Measured values published in article PMC3025350, “Regulation and Rate Enhancement during Transcription-Coupled DNA Repair”.
Substitutions are numbered along the chain they refer to.

Legend:
Details in all cases: protein: recombinant; tags: N-terminal His; chain copies: 2; label: 32P; blunt
UvrA WT = biological target: T1, UvrA WT (Escherichia coli, UniProt P0A698 1-940); test: EMSA; 2 mM ATP; EMSA, 1 nM 32P-labeled 50 bp duplex, 2 mM ATP, 20 min at 37°C; buffer, salt and pH not given in the material
T1 sequence: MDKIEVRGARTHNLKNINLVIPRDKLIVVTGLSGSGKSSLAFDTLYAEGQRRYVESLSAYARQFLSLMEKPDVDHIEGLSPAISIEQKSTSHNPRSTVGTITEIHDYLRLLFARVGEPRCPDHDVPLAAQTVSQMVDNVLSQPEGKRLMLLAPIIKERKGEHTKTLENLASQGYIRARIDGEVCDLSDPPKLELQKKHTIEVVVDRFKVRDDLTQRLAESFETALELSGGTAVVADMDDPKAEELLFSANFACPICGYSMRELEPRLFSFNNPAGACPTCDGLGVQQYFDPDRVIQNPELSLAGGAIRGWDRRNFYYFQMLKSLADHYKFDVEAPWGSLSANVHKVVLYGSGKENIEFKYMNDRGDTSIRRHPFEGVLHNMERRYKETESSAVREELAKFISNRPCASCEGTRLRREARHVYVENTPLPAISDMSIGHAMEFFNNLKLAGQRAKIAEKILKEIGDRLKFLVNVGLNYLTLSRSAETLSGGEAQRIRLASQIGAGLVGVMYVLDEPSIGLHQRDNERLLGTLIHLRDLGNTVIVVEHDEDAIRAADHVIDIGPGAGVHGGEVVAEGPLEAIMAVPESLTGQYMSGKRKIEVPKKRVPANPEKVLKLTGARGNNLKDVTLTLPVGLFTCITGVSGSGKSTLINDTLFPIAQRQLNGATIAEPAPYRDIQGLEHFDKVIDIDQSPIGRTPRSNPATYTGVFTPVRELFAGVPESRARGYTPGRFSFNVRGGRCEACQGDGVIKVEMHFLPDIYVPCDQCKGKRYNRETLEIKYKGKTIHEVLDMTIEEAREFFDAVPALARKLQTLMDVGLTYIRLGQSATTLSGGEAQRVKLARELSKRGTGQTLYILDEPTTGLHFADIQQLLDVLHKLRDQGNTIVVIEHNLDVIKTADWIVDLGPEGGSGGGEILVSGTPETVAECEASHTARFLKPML

UvrA K37A = biological target: T2, UvrA K37A (Escherichia coli, UniProt P0A698 1-940, K37A); test: EMSA; 2 mM ATP; binding detected at <300 nM UvrA; EMSA, 1 nM 32P-labeled 50 bp duplex, 2 mM ATP, 20 min at 37°C; buffer, salt and pH not given in the material
T2 sequence: T1 sequence with K37A

UvrA G502D = biological target: T3, UvrA G502D (Escherichia coli, UniProt P0A698 1-940, G502D); test: as above
T3 sequence: T1 sequence with G502D

[1] = biological target: T4, UvrA R712A R722A R724A R730A (Escherichia coli, UniProt P0A698 1-940, R712A;R722A;R724A;R730A); test: EMSA; 2 mM ATP; no binding detected at 800 nM UvrA; EMSA, 1 nM 32P-labeled 50 bp duplex, 2 mM ATP, 20 min at 37°C; buffer, salt and pH not given in the material
T4 sequence: T1 sequence with R712A, R722A, R724A, R730A

B1: 50 bp duplex with single FldT adduct (dsDNA)
DNA 1: CTAGGATCGGATAGCGCATGACAGTGACTGGATCGACAGCGTCGTATGAG
DNA 2: CTCATACGACGCTGTCGATCCAGTCACTGTCATGCGCTATCCGATCCTAG
modifications: fluorescein-dT (FldT) at position 29 of strand 1
Kd (UvrA WT): 5.6 ± 1 nM | binding result (UvrA K37A): binds | binding result (UvrA G502D): binds | binding result [1]: no binding
